Numbering of substitutions follows the chain as printed.
Assays:
human IL-11 [1] = biological target: T1, human IL-11 (human, UniProt P20809 22-199); experiment: cell-based or functional assay
T1 sequence: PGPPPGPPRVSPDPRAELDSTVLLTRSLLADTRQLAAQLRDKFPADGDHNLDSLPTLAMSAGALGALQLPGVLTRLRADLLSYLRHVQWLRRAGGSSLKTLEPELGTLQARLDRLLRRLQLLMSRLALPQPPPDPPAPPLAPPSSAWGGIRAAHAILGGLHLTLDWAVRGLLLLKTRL

murine IL-11 [2] = biological target: T2, murine IL-11 (mouse, UniProt P47873 22-199); experiment: cell-based or functional assay
T2 sequence: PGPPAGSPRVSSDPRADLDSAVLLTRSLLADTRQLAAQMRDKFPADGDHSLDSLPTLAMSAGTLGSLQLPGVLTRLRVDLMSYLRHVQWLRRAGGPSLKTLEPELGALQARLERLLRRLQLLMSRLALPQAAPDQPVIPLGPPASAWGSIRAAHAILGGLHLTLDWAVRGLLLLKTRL

human IL-11 [3] = biological target: T1, human IL-11; experiment: SPR (Biacore), 25 C, antibody captured via anti-Fc, IL-11 as analyte
Procedure: (§1) To assess the binding kinetics and affinity of anti-IL-11 bispecific antibodies as well as their species cross-reactivity profile, binding assays were conducted using surface plasmon resonance (SPR). […] Antibodies were captured either via anti-human Fc IgGs (“Human antibody capture kit”, Order No. BR100839, Cytiva) or via anti-mouse Fc IgGs (“Mouse antibody capture kit, Order No. BR100383, Cytiva) covalently amine coupled to a Series S CM5 sensor chip (Cytiva) depending on the isotype. The amine coupling was carried out according to the manufacturer's instructions using 1-ethyl-3-(3-dimethylaminopropyl) carbodiimide hydrochloride (EDC), N-hydroxysuccinimide (NHS) and ethanolamine HCl, pH 8.5 (“Amine Coupling Kit” BR-1000-50, Cytiva.). Human, mouse, cynomolgus or rat IL-11 was used as analyte at several dilutions within the concentration range from 0.05-200 nM. For binding assays with only one concentration 200 nM IL-11 was used. The sensor surface was regenerated with glycine pH 1.7 after each antigen injection. Obtained sensorgrams were double referenced (subtraction of reference flow cell signal and buffer injection) and were fitted to a 1:1 Langmuir binding model to derive kinetic data using the Biacore T200 Evaluation software or the Biacore Insight software.
(§2) If no value is reported, there was either no binding or very low binding and multiphasic binding behavior.

murine IL-11 [4] = biological target: T2, murine IL-11; experiment: as above
Procedure: as §1, §2

cynomolgus IL-11 [5] = biological target: T3, cynomolgus IL-11 (cynomolgus, UniProt P20808 22-199); experiment: as above
T3 construct: Invigate recombinant protein; also called cIL11; Macaca IL-11
T3 sequence: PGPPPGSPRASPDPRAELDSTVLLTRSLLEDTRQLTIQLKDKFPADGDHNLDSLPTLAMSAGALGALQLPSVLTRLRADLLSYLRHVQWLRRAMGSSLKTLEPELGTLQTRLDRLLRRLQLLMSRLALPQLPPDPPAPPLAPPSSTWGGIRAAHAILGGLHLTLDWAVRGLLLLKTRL
Procedure: as §1, §2

rat IL-11 [6] = biological target: T4, rat IL-11 (rat, UniProt Q99MF5 22-199); experiment: as above
T4 construct: Invigate recombinant protein; also called rIL11
T4 sequence: T2 sequence with S50N, L84F, G94A, V137A, I138V
Procedure: as §1, §2

human IL2Ra = biological target: T5, human IL2Ra (human, UniProt P01589 22-240, limits assumed); experiment: ELISA on coated IL2Ra, signal ratio to isotype control at 1E-07 M antibody
T5 construct: coated on the ELISA plate; also called IL-2 receptor alpha
T5 sequence (looked up): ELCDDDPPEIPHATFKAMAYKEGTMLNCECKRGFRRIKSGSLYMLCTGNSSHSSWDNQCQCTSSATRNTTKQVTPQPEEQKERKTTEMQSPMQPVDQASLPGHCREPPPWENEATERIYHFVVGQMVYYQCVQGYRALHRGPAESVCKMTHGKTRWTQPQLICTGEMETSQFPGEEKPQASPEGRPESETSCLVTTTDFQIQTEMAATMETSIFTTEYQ
Procedure: IL2RA (Peprotech, Germany, #200-02RC) was coated at 1 or 0 μg/ml (buffer only control) in 30 μl coating buffer (Candor, #113500) per well on a 384 well microtiter plate (Maxisorb, Nunc, #460518) over night at 4-8° C. After two washes with 50 μl/well washing buffer (PBS+0.05% Tween, pH 7.4), the plates were incubated for two hours at room temperature with 50 μl/well SmartBlock (Candor, #113500). After blocking, the plates were washed three times with washing buffer. Then, a dilution series of the respective antibody (1E-7 [M] down to 2E-13 [M]) in PBS+0.05% Tween, 10% SmartBlock were added in 30 μl to the microtiter plate and incubated for 90 min at room temperature. After three additional washes, 30 μl anti mouse IgG HRP-conjugated antibody (Biotechne, HAF007), diluted 1:1000 in PBS+0.05% Tween (pH 7.4), were added per well and incubated for one hour. After three additional washes, a mixture of Amplex red (Invitrogen, #12222, 10 mM stock solution in DMSO) 1:1000 diluted in PBS and H2O2 (30%, Merck, #107209)) diluted 1:10000 in PBS were added as substrate with 30 μl per well and incubated for 20 min in the dark. Relative fluorescence was measured with a microtiter plate reader at 535/590 nm.
Bispecific antibodies were subjected to the experimental assay procedure described in Example 20. Ratios of the signals generated at an antibody concentration of 1E-07 [M] by the respective bispecific antibody versus those of an isotype control antibody were calculated and are shown in Table E29. The bispecific antibodies show no binding to IL-2 Ra.

murine IL-11 [7] = biological target: T2, murine IL-11; experiment: Di-complex ELISA, murine IL11RA-Fc binding to immobilized mIL-11, competition
Procedure: In the Di-complex ELISA format anti IL-11 antibodies are tested for the ability to interfere with the formation of complexes consisting of immobilized murine IL-11 (Invigate, e.g., lot #C210819-09) or human IL-11 (Invigate, e.g., lot #C121021-19), and murine IL11RA-Fc fusion proteins or canine IL11RA-human-Fc fusion protein (FIG. 17a, b).
Bispecific antibodies were subjected to the experimental assay procedure described in Example 18 and IC50 [M], respectively efficacy (%) were calculated accordingly.

human IL-11 [8] = biological target: T1, human IL-11; experiment: Tri-complex ELISA, hIL-11 + mIL-11Ra-Fc + hgp130-Fc, inhibition of complex formation
Procedure: (§3) In the Tri-complex ELISA format IL-11 antibodies are tested for their ability to inhibit the formation of a complex consisting of murine or human gp130-Fc fusion protein, with murine or human IL-11, and a murine IL11RA-Fc fusion protein. The assay format was adapted according to FIG. 18 (a, b), depending on whether murine or human IL-11 IgG antibodies were tested.
(§4) Bispecific antibodies were subjected to the experimental assay procedure described in Example 19 and IC50 [M], respectively efficacy (%) were calculated accordingly.

murine IL-11 [9] = biological target: T2, murine IL-11; experiment: Tri-complex ELISA, mIL-11 + mIL-11Ra-Fc + mgp130-Fc, inhibition of complex formation
Procedure: as §3, §4

human IL-11 [10] = biological target: T6, human IL-11 (human, UniProt P20809 22-199); experiment: cell-based or functional assay; remark: listed apart in the source
T6 sequence: T1 sequence

murine IL-11 [11] = biological target: T7, murine IL-11 (mouse, UniProt P47873 22-199); experiment: cell-based or functional assay; remark: listed apart in the source
T7 sequence: T2 sequence

cynomolgus IL-11 [12] = biological target: T8, cynomolgus IL-11 (cynomolgus, UniProt P20808 22-199); experiment: cell-based or functional assay
T8 sequence: T3 sequence

rat IL-11 [13] = biological target: T9, rat IL-11 (rat, UniProt Q99MF5 22-199); experiment: cell-based or functional assay
T9 sequence: T2 sequence with S50N, L84F, G94A, V137A, I138V

human IL-11 [14] = biological target: T6, human IL-11; experiment: SPR 37 C, antibody captured, IL-11 as analyte
murine IL-11 [15] = biological target: T7, murine IL-11; experiment: SPR 37 C, antibody captured, IL-11 as analyte
cynomolgus IL-11 [16] = biological target: T8, cynomolgus IL-11; experiment: SPR 37 C, antibody captured, IL-11 as analyte
rat IL-11 [17] = biological target: T9, rat IL-11; experiment: SPR 37 C, antibody captured, IL-11 as analyte
human IL-11 [18] = biological target: T6, human IL-11; experiment: Di-complex ELISA, competitor murine IL11RA-Fc on coated IL-11
murine IL-11 [19] = biological target: T7, murine IL-11; experiment: as above

B1: TPP-20489 (bispecific antibody, IgG1)
chain 1: not shown
chain 2: EVQLLESGGGLVQPGGSLRLSCAASGFTFSHYDMNWLRQAPGKGLEWVGVISYDGSNKFYADFVKGRFTISRDNSKNTLYLQMNSLRAEDTAVYYCARTPGSHFDYWGQGTLVTVSSGGGGSGGGGSGGGGSQSVLTQPPSASGTPGQRVTISCSGSSSNIGNNAVNWYQQLPGTAPKLLIYYDDLLPSGVPDRFSGSKSGTSASLAISGLRSEDEADYYCSAWDDSLNGVVFGGGTKLTVLGGGGSGGGGSGGGGSGVECPPCPAPELLGGPSVFLFPPKPKDTLMISRTPEVTCVVVDVSHEDPEVKFNWYVDGVEVHNAKTKPREEQYNSTYRVVSVLTVLHQDWLNGKEYKCKVSNKALPAPIEKTISKAKGQPREPQVCTLPPSRDELTKNQVSLSCAVKGFYPSDIAVEWESNGQPENNYKTTPPVLDSDGSFFLVSKLTVDKSRWQQGNVFSCSVMHEALHNHYTQKSLSLSPG
notes: scFv-kih-hIgG1
Which results are given for B1?
Efficacy (%), Stat3 reporter gene assay (human IL-11 [1]): 102%; IC50, Stat3 reporter gene assay (human IL-11 [1]): 0.31 nM; Efficacy (%), Stat3 reporter gene assay (murine IL-11 [2]): 93.9%; IC50, Stat3 reporter gene assay (murine IL-11 [2]): 1 nM; Kd (human IL-11 [3]): 0.011 nM; Kd (murine IL-11 [4]): 0.005 nM; Kd (cynomolgus IL-11 [5]): 0.025 nM; Kd (rat IL-11 [6]): 0.0026 nM; Ratio IL-2Ra Binding Signal Antibody/Isotype Control (human IL2Ra): 852 ratio; IC50 (murine IL-11 [7]): 35 nM; Efficacy (%) (human IL-11 [8]): 105%; IC50 (human IL-11 [8]): 6.28 nM; Efficacy (%) (murine IL-11 [9]): 94%; IC50 (murine IL-11 [9]): 1.81 nM

B2: TPP-23552 (antibody, human IgG1, kappa)
heavy: not shown
light: DIVLTQSPASLALSPGERATLSCRASKSVSTSGYSYIHWYQQKPGQPPRLLIYLASNLDSGVPARFSGSGSGTDFTLNIHPLEEEDFATYYCQHSRDLPPTFGQGTKLEIKRTVAAPSVFIFPPSDEQLKSGTASVVCLLNNFYPREAKVQWKVDNALQSGNSQESVTEQDSKDSTYSLSSTLTLSKADYEKHKVYACEVTHQGLSSPVTKSFNRGEC
notes: hIgG1, Kappa; also called BSN 3C6 (WO2019238882)
Which “RGA Efficacy (%)” value (human IL-11 [10]) does the source give for B2 here?
The value was 76.7%.

What about the “RGA IC50” value (human IL-11 [10]) of the same binder?
The value was 3.7 nM.

What about the “RGA Efficacy (%)” value (murine IL-11 [11]) of the same binder?
Its value is 90.9%.

What about the “RGA IC50” value (murine IL-11 [11]) of the same binder?
The value was 8.1 nM.

And the “RGA Efficacy (%)” value (cynomolgus IL-11 [12])?
The value was 52.4%.

And the “RGA Efficacy (%)” value (rat IL-11 [13])?
Its value is 81.3%.

And the “RGA IC50” value (rat IL-11 [13])?
The value was 8.8 nM.

What about the Kd (human IL-11 [14]) of the same binder?
Its Kd is 1.4 nM.

What about the Kd (murine IL-11 [15]) of the same binder?
The Kd was 1.8 nM.

Does B2 bind (cynomolgus IL-11 [16])?
Result: no binding (tested: IL-11 up to 200 nM)

What about the Kd (rat IL-11 [17]) of the same binder?
The Kd was 3.2 nM.

What about the “Efficacy (%)” value (human IL-11 [18]) of the same binder?
The value was 97.2%.

And the IC50 (human IL-11 [18])?
The IC50 was 2.9 nM.

And the “Efficacy (%)” value (murine IL-11 [19])?
Its value is 98.4%.

What about the IC50 (murine IL-11 [19]) of the same binder?
Its IC50 is 3.3 nM.
